Laboratory results as given in patent USRE48267E1, “Variants of C-type natriuretic peptide” (priority 2009, dated 2020).
Where no end group is shown, it is not given here. [ ]: non-standard residue; d: D form. PEO12 = PEO12, 0.6 kDa, monodispersed; PEO24 = PEO24, 1.2 kDa, monodispersed; tBuAla = CC(C)(C)C[C@H](N)C(=O)O; Cit = NC(=O)NCCC[C@H](N)C(=O)O

T1: NPR-B (natriuretic peptide receptor B), murine, expressed endogenously on NIH3T3 cells (murine, UniProt Q6VVW5 17-1047)
T1 sequence (looked up): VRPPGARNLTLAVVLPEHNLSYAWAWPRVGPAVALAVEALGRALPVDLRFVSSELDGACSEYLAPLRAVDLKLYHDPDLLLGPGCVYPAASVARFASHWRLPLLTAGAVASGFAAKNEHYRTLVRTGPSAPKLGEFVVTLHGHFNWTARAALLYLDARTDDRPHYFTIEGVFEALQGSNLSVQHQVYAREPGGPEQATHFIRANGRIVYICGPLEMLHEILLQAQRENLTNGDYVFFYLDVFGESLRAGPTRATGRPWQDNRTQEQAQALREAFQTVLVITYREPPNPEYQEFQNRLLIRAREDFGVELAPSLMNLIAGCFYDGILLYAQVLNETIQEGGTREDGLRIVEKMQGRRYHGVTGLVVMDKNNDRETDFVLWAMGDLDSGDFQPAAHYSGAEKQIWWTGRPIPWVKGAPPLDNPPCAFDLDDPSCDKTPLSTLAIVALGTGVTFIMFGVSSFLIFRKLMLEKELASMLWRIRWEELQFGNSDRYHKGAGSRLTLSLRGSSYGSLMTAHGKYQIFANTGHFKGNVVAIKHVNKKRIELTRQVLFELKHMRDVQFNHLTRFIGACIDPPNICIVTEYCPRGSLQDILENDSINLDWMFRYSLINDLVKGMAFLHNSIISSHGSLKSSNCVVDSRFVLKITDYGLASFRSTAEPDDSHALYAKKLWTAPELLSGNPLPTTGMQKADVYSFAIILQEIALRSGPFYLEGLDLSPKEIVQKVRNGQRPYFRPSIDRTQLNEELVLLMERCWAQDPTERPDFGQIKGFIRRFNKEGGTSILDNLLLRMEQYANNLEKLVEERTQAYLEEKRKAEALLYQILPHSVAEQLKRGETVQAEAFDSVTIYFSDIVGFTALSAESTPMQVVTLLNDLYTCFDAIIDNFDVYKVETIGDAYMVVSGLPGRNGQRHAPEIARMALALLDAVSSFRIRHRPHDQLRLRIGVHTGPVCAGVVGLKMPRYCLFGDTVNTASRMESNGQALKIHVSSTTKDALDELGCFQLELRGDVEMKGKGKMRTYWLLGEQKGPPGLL


Target: T1, NPR-B (natriuretic peptide receptor B), …
Experiment: cell-based or functional assay

Binder | cGMP response rel. to 1 uM CNP22; 10 nM peptide, NIH3T3 cells | cGMP response rel. to 1 uM CNP22; 1 uM peptide, NIH3T3 cells
GLSRGCFGTKLDRIGSMSGLGC [CNP22, K4R, L9T] | 4 rel. to 1 uM CNP22 (100) | 68 rel. to 1 uM CNP22 (100)
GLSRGCFGLKLDRIGSMSRLGC [CNP22, K4R, G19R] | 22 rel. to 1 uM CNP22 (100) | 84 rel. to 1 uM CNP22 (100)
ELSEGCFGLKLDRIGSMSGLGC [CNP22, G1E, K4E] | 11 rel. to 1 uM CNP22 (100) | 54 rel. to 1 uM CNP22 (100)
GLSRGCFGLKLDRIGSMSSLGC [CNP22, K4R, G19S] | 21 rel. to 1 uM CNP22 (100) | 63 rel. to 1 uM CNP22 (100)
GLSRGCFTLKLDRIGSMSGLGC [CNP22, K4R, G8T] | 11 rel. to 1 uM CNP22 (100) | 66 rel. to 1 uM CNP22 (100)
GLSRGCFGLKLDRIGSMSGRGC [CNP22, K4R, L20R] | 11 rel. to 1 uM CNP22 (100) | 8 rel. to 1 uM CNP22 (100)
GLSRSCFGLKLDRIGSMSGLGC [CNP22, K4R, G5S] | 45 rel. to 1 uM CNP22 (100) | 
GLSRGCFGLKLDRIRSMSGLGC [CNP22, K4R, G15R] | 0.3 rel. to 1 uM CNP22 (100) | 0.3 rel. to 1 uM CNP22 (100)
GLSRGCFVLKLDRIGSMSGLGC [CNP22, K4R, G8V] | 3 rel. to 1 uM CNP22 (100) | 25 rel. to 1 uM CNP22 (100)
GLSRGCFGLSLDRIGSMSGLGC [CNP22, K4R, K10S] | 16 rel. to 1 uM CNP22 (100) | 53 rel. to 1 uM CNP22 (100)
GLSRGCFGLQLDRIGSMSGLGC [CNP22, K4R, K10Q] | 9 rel. to 1 uM CNP22 (100) | 45 rel. to 1 uM CNP22 (100)
GLSRGCFSLKLDRIGSMSGLGC [CNP22, K4R, G8S] | 26 rel. to 1 uM CNP22 (100) | 86 rel. to 1 uM CNP22 (100)
GLSRGCFGLKLDRIGQMSGLGC [CNP22, K4R, S16Q] | 42 rel. to 1 uM CNP22 (100) | 116 rel. to 1 uM CNP22 (100)
GLSRGCFGLKLDRIGSVSGLGC [CNP22, K4R, M17V] | 10 rel. to 1 uM CNP22 (100) | 65 rel. to 1 uM CNP22 (100)
GLSRGCFGLKLDRIGSMSGLRC [CNP22, K4R, G21R] | 20 rel. to 1 uM CNP22 (100) | 21 rel. to 1 uM CNP22 (100)
GLSRGCFGL[Cit]LDRIGSMSGLGC (ends and bridges not checked) [CNP22, K4R, K10Cit] | 6 rel. to 1 uM CNP22 (100) | 33 rel. to 1 uM CNP22 (100)
GLSRGCYGLKLDRIGSMSGLGC (ends and bridges not checked; cysteine pairing not given here) [CNP22, K4R, F7Y] | 2 rel. to 1 uM CNP22 (100) | 18 rel. to 1 uM CNP22 (100)
GLSRGCFGLKLDRIGSMSGLTC [CNP22, K4R, G21T] | 6 rel. to 1 uM CNP22 (100) | 21 rel. to 1 uM CNP22 (100)
GLSRGCFGLKLDRISSMSGLGC [CNP22, K4R, G15S] | 13 rel. to 1 uM CNP22 (100) | 71 rel. to 1 uM CNP22 (100)
GLSRGCFGLKLDRIGSMSGVGC [CNP22, K4R, L20V] | 0.2 rel. to 1 uM CNP22 (100) | 8 rel. to 1 uM CNP22 (100)
GLSRGCFGLKLDRI[Cit]SMSGLGC (ends and bridges not checked) [CNP22, K4R, G15Cit] | 1.4 rel. to 1 uM CNP22 (100) | 2 rel. to 1 uM CNP22 (100)
GLSRRCFGLKLDRIGSMSGLGC [CNP22, K4R, G5R] | 18 rel. to 1 uM CNP22 (100) | 80 rel. to 1 uM CNP22 (100)
GLSRGCFGLKLDRINSMSGLGC [CNP22, K4R, G15N] | 4 rel. to 1 uM CNP22 (100) | 41 rel. to 1 uM CNP22 (100)
GLSRGCFGLKLDRIGSMSG[tBuAla]GC (ends and bridges not checked) [CNP22, K4R, L20t-butyl-Ala] | 1 rel. to 1 uM CNP22 (100) | 21 rel. to 1 uM CNP22 (100)
GLSRGCFGLRLDRIGSMSGLGC [CNP22, K4R, K10R] | 12 rel. to 1 uM CNP22 (100) | 80 rel. to 1 uM CNP22 (100)
GLSRGCFGLKLDRIGSNSGLGC [CNP22, K4R, M17N] | 40 rel. to 1 uM CNP22 (100) | 103 rel. to 1 uM CNP22 (100)
GLSRGCFGLKLDRIGSMSGLGC [CNP22, K4R] | 59 rel. to 1 uM CNP22 (100) | 121 rel. to 1 uM CNP22 (100)

Target: T1, NPR-B (natriuretic peptide receptor B), …
Experiment: cell-based or functional assay
Remark: another data set of the same source

Binder | cGMP response rel. to 1 uM CNP22; 10 nM peptide, NIH3T3 cells | cGMP response rel. to 1 uM CNP22; 1 uM peptide, NIH3T3 cells
{PEG 5 kDa}-GLSKGCFGLKLDRIGSMSGLGC (ends and bridges not checked; also: PEG polydispersed) [PEG5K-CNP22] | 8 rel. to 1 uM CNP22 (100) | 20 rel. to 1 uM CNP22 (100)
PEO24-GLSKGCFGLKLDRIGSMSGLGC (ends and bridges not checked) [PEO24-CNP22] | 8 rel. to 1 uM CNP22 (100) | 46 rel. to 1 uM CNP22 (100)
{PEO4‑(PEO12)3 (branched)}-GLSKGCFGLKLDRIGSMSGLGC (ends and bridges not checked) [PEO4-(PEO12)3 (branched)-CNP22] | 17 rel. to 1 uM CNP22 (100) | 52 rel. to 1 uM CNP22 (100)
{PEG 20 kDa}-GLSKGCFGLKLDRIGSMSGLGC (ends and bridges not checked) [PEG20K-CNP22] | 0 rel. to 1 uM CNP22 (100) | 15 rel. to 1 uM CNP22 (100)
{PEG 2 kDa}-GLSKGCFGLKLDRIGSMSGLGC (ends and bridges not checked) [PEG2K-CNP22] | 6 rel. to 1 uM CNP22 (100) | 32 rel. to 1 uM CNP22 (100)
{PEG 1 kDa}-GLSKGCFGLKLDRIGSMSGLGC (ends and bridges not checked; also: PEG polydispersed) [PEG1K-CNP22] | 15 rel. to 1 uM CNP22 (100) | 68 rel. to 1 uM CNP22 (100)
PEO12-GLSKGCFGLKLDRIGSMSGLGC (ends and bridges not checked) [PEO12-CNP22] | 12 rel. to 1 uM CNP22 (100) | 57 rel. to 1 uM CNP22 (100)
GLSKGCFGLKLDRIGSMSGLGC (not fully specified (N-terminus); ends and bridges not checked) [(PEO12)-Biotin-CNP22] | 19 rel. to 1 uM CNP22 (100) | 81 rel. to 1 uM CNP22 (100)
